# T1: human APRIL protein (human, UniProt O75888 105-250, limits assumed)
# T1 construct: Bought protein; also called recombinant APRIL protein
# T1 sequence (looked up): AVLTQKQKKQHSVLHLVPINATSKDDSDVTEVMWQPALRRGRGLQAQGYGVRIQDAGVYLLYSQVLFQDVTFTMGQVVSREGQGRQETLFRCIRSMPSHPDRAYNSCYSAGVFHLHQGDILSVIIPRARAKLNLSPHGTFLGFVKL
# B1: c20D1B6E9E5 (antibody, V domains shown)
# VH: EVQLQQSVAELVRPGASVKLSCTASDFNIKNTYIHWVKQRPEQGLEWIGRIDPVNGNTKYAPKFQDKATIIVDTYSNTAYLQLSSLASEDTAVYYCARWPITTIVATDWYFDVWGTGTTVTVSS
# VL: DVLMTQTQLALPVRLGEQASISCRSSQSIVNSNGNTYLEWYLQKPGQSPKLLIYKVSNRFSGVPDRFSGSGSGTDFTLKISRVEAEDLGVYYCFQGSHVPWTFGGGTKLEIK
# B2: humanized BLyS antibody h97A3C2H4-9 (antibody, human IgG1, V domains shown)
# VH: EVQLVESGGGLVQPGGSLRLSCAASGFTFSTYTMSWVRQAPGKRLEWVAYISYGGGSTSYPDTVKGRFTISRDNAKNSLYLQMNSLRAEDTAVYYCTRHVTVVENSMDYWGQGTTVTVSS
# VL: DILLTQSPDFQSVTPKEKVTITCRASQSIGTSIHWYQQKTDQSPKLLIKYVSESFSGTPSRFSGSGSGTDFTLTINSLEAEDAATYYCQQTHSWPWTFGGGTKVEIK
# B3: mouse-human chimeric BLyS antibody c97A3C2H4 (antibody, human IgG1, V domains shown)
# VH: EVKLVESGGGLVQPGGSLKLSCAASGFTFSTYTMSWVRQTPEKRLEWVAYISYGGGSTSYPDTVKGRFTISRDNAKNTLYLQMSSLKSEDTAIYYCTRHVTVVENSMDYWGQGTSVTVSS
# VL: DILLTQSPDILSVSPGERVSFSCRASQSIGTSIHWYQQRTNGSPRLLIKYVSESFSGTPSRFSGSGSGTAFTLTINSVESEDIADYYCQQTHSWPWTFGGGTKLEIK
# B4: c97E7B3F2 (antibody, V domains shown)
# VH: EVQLQQSGPELVKSGASVKISCKASGYTFTDHKMHWVKQSHGKSLEWIGYISPYNGGTGYNQKFKSKVTLTVDISSSTAYMELRSLTSEDSAVYYCARWGFYDVMDSWGQGTSVTVSS
# VL: DVLLTQTPLSLPVSLGDQASISCRSSQTIVHIIGDTYLEWYLQKPGQSPKLLIYKVSNRFSGVPDRFSGSGAGTDFTLKISRVEAEDLGVYYCFQGSHVPRTFGGGTKLEIK
# B5: 8E7D9C7F5 (antibody, V domains shown)
# VH: QVQLQQSGVELARPGASVKLSCKASGYTFTSYGISWVKQRTGQALEWIGEIYPRSGNTYYNEKFKGKATLTADKSSSTAYMELRSLTSEDSAVYFCARSGPITTLVATDYGMDYWGQGTSVTVSS
# VL: DIVLTQSPASLAVSLGQRATISCRASKSVSTSSYSYMHWYQQKPGQPPKLLIKFASNLESGVPARFSGSGSGTDFTLNIHPVEEEDAATYYCQHSREFPYTFGGGTKLEIK
# B6: mouse-human chimeric BLyS antibody c8E7D9C7F5 (antibody, human IgG1, V domains shown)
# VH: QVQLQQSGVELARPGASVKLSCKASGYTFTSYGISWVKQRTGQALEWIGEIYPRSGNTYYNEKFKGKATLTADKSSSTAYMELRSLTSEDSAVYFCARSGPITTLVATDYGMDYWGQGTSVTVSS
# VL: DIVLTQSPASLAVSLGQRATISCRASKSVSTSSYSYMHWYQQKPGQPPKLLIKFASNLESGVPARFSGSGSGTDFTLNIHPVEEEDAATYYCQHSREFPYTFGGGTKLEIK
# B7: c89A2G5E7 (antibody, V domains shown)
# VH: QVQLKESGPGLVAPSQSLSITCTVSGLSLNSHDISWIRQPPGKGLEWLGVIWSGGGTKYNSAFMSRLSISKDNSKSQVFLKMNSLHTDDTAIYYCVRTPSMITYSAMDYWGQGTSVTVSS
# VL: EIVLTQSPALMAASPGEKVTITCSVSSSISSRNLHWYQQKSQTSPKAWIHATSNLASGVPVRFSGSGSGTSYSLTISSMEAEDAATYYCQQWSSYPLTFGSGTKLEIK
# B8: humanized BLyS antibody h8E7D9C7F5-1 (antibody, human IgG1, V domains shown)
# VH: EVQLVQSGAEVKKPGASVKVSCKASGYTFTSYGISWVRQAPGQGLEWMGEIYPRSGNTYYNEKFKGRVTMTTDTSTSTAYMELRSLRSDDTAVYYCARSGPITTLVATDYGMDYWGQGTTVTVSS
# VL: DIVMTQSPDSLAVSLGERATINCRASKSVSTSSYSYMHWYQQKPGQPPKLLIKFASNLESGVPDRFSGSGSGTDFTLTISSLQAEDVAVYYCQHSREFPYTFGGGTKVEIK
# Experiments:
# [1] = biological target: T2, extracellular domain of human BLyS protein (hBLyS-ECD), His-tagged, Ala134-Leu285 (human, UniProt Q9Y275 134-285); assay: SPR (Biacore), antibody captured by anti-human Fc, hBLyS-ECD as analyte
# T2 construct: Expressed in HEK293 cells and purified on a Ni column; also called immunogen
# [2] = biological target: His-tagged extracellular domain of human BLyS protein (hBLyS-ECD), Ala134-Leu285 (human, UniProt Q9Y275 134-285); assay: cell-based or functional assay
# human APRIL protein [3] = biological target: T1, human APRIL protein; assay: ELISA, coated APRIL; antibody 13.3 nM
# Procedure: (§1) To test whether the BLyS antibody cross-reacted with human APRIL protein, APRIL protein (purchased from R & D Systems) was first diluted to a final concentration of 1.0 μg/mL with PBS, and then 50 μL of which per well was aliquoted into a 96-well ELISA plate, and the plate was subsequently sealed with plastic film and incubated at 4° C. overnight. On the next day the plate was rinsed four times with the plate washing buffer [PBS buffer containing 0.0500 (v/v) Tween20] and a blocking solution [PBS buffer containing 0.05 (v/v) Tween20 and 1 (w/w) BSA] was added, then the protein was blocked at 37° C. for 2 hours. The blocking solution was removed and 100 μL per well of the lead antibodies prepared in Embodiment 1 and 2 were added in. After incubation for 1 hour at 37° C., the plate was rinsed four times with the plate washing buffer [PBS buffer containing 0.05 (v/v) Tween20]. HRP-labeled (horseradish peroxidase) secondary antibody (purchased from Sigma) was added in and incubated at 37° C. for 1 hour. The plate was then rinsed four times with the plate washing buffer [PBS buffer containing 0.050 (v/v) Tween20]. 100 μL of TMB substrate was aliquoted into each well and after incubation at room temperature for 5 minutes, 100 μL of stop solution (1.0 N HCl) was aliquoted into each well. A₄₅₀ₙₘ values were read via an ELISA plate reader (SpectraMax M5e purchased from Molecular Devices) and the results were shown in FIGS. 6A-6B and Table 11. […] As used herein, the IgG control is human IgG and the data in the table is GD number at 450 nm.
# human APRIL protein [4] = biological target: T1, human APRIL protein; assay: ELISA, coated APRIL; antibody 2.67 nM
# Procedure: as §1
# human APRIL protein [5] = biological target: T1, human APRIL protein; assay: ELISA, coated APRIL; antibody 66.7 nM
# Procedure: as §1
# human APRIL protein [6] = biological target: T1, human APRIL protein; assay: ELISA, coated APRIL; antibody 0.107 nM
# Procedure: as §1
# human APRIL protein [7] = biological target: T1, human APRIL protein; assay: ELISA, coated APRIL; antibody 0.534 nM
# Procedure: as §1
# human APRIL protein [8] = biological target: T1, human APRIL protein; assay: ELISA, coated APRIL; antibody 0.0213 nM
# Procedure: as §1
# human APRIL protein [9] = biological target: T1, human APRIL protein; assay: ELISA, coated APRIL; antibody 0.00427 nM
# Procedure: as §1
# human APRIL protein [10] = biological target: T1, human APRIL protein; assay: ELISA, coated APRIL; antibody 0 nM (blank)
# Procedure: as §1
# T2 sequence (Q9Y275 134-285): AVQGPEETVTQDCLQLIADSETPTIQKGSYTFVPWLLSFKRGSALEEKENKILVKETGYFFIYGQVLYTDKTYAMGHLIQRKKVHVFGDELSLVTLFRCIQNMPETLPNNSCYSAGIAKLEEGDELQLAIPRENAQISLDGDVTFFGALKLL
Binder,Kd [1],koff [1],kon [1],mouse B lymphocyte proliferation stimulated by hBLyS-ECD (viable cell signal) at 0 nM antibody [2],mouse B lymphocyte proliferation stimulated by hBLyS-ECD (viable cell signal) at 0.000256 nM antibody [2],mouse B lymphocyte proliferation stimulated by hBLyS-ECD (viable cell signal) at 0.00128 nM antibody [2],mouse B lymphocyte proliferation stimulated by hBLyS-ECD (viable cell signal) at 0.0064 nM antibody [2],mouse B lymphocyte proliferation stimulated by hBLyS-ECD (viable cell signal) at 0.032 nM antibody [2],mouse B lymphocyte proliferation stimulated by hBLyS-ECD (viable cell signal) at 0.16 nM antibody [2],mouse B lymphocyte proliferation stimulated by hBLyS-ECD (viable cell signal) at 0.8 nM antibody [2],mouse B lymphocyte proliferation stimulated by hBLyS-ECD (viable cell signal) at 4 nM antibody [2],mouse B lymphocyte proliferation stimulated by hBLyS-ECD (viable cell signal) at 20 nM antibody [2],mouse B lymphocyte proliferation stimulated by hBLyS-ECD (viable cell signal) at 100 nM antibody [2],also measured
B1,0.642 nM,0.000211 s⁻¹,329000 M⁻¹ s⁻¹,,,,,,,,,,,
B2,,,,3590 OD450 nm (as headed),3080 OD450 nm (as headed),3540 OD450 nm (as headed),2970 OD450 nm (as headed),2960 OD450 nm (as headed),2770 OD450 nm (as headed),1110 OD450 nm (as headed),217 OD450 nm (as headed),137 OD450 nm (as headed),127 OD450 nm (as headed),
B3,,,,3450 OD450 nm (as headed),3110 OD450 nm (as headed),2900 OD450 nm (as headed),3050 OD450 nm (as headed),2960 OD450 nm (as headed),2890 OD450 nm (as headed),429 OD450 nm (as headed),223 OD450 nm (as headed),159 OD450 nm (as headed),169 OD450 nm (as headed),
B4,0.147 nM,4.89e-05 s⁻¹,334000 M⁻¹ s⁻¹,,,,,,,,,,,
B5,,,,,,,,,,,,,,OD450 nm (human APRIL protein [3]): 0.116; OD450 nm (human APRIL protein [4]): 0.0703; OD450 nm (human APRIL protein [5]): 0.464; OD450 nm (human APRIL protein [6]): 0.0558; OD450 nm (human APRIL protein [7]): 0.0599; OD450 nm (human APRIL protein [8]): 0.0565; OD450 nm (human APRIL protein [9]): 0.0571; OD450 nm (human APRIL protein [10]): 0.0551
B6,,,,3640 OD450 nm (as headed),3310 OD450 nm (as headed),3360 OD450 nm (as headed),3020 OD450 nm (as headed),2950 OD450 nm (as headed),3200 OD450 nm (as headed),408 OD450 nm (as headed),187 OD450 nm (as headed),187 OD450 nm (as headed),116 OD450 nm (as headed),
B7,0.0857 nM,1.82e-05 s⁻¹,213000 M⁻¹ s⁻¹,,,,,,,,,,,
B8,,,,3480 OD450 nm (as headed),3000 OD450 nm (as headed),3120 OD450 nm (as headed),3200 OD450 nm (as headed),2970 OD450 nm (as headed),2730 OD450 nm (as headed),951 OD450 nm (as headed),209 OD450 nm (as headed),152 OD450 nm (as headed),131 OD450 nm (as headed),
